The data set deals with Saccharomyces cerevisiae. Put plainly: transcriptional activation domain activity (GFP:mCherry ratio, weighted mean of sorted bins, harmonized to initial dataset scale) (arbitrary fluorescence ratio units); higher = stronger transcriptional activation. Particulars: beta-estradiol 1 µM; induction time 4 h. A digest of the protocol: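 The activation activity of each tile is the read-weighted mean of bin median fluorescence, averaged across its barcodes and mapped linearly onto the scale of the initial dataset. Tiles were fused to an estradiol-inducible synthetic transcription factor, barcoded, and integrated at URA3 in yeast diploids carrying a GFP reporter. Induction used 1 uM beta-estradiol in SC for 4 hours at 30 °C, after which cells were sorted into 8 GFP:mCherry bins, and any tile with fewer than 50 reads was dropped.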

The values that follow come from the supplement of paper PMC12636428.

On to “LLLRSFKTFQLWTGDQCLEYLGDKFRVVLGLPDDWTNKDLGYWLLSKLVLVHL”, for which the “transcriptional activation domain activity” value amounted to 73000.
Take “MVFFFFFFFLEGGGLVGWLCSALIFPLSFFLSSKLCLLLPLYYYSNCVFFFLC”: the “transcriptional activation domain activity” value stood at 75600.
For the sequence “FLDFLDLWTFGLFGPLDFLDFLDFLDFLDFLDFLDFLDLWTFGLFGPLDFLDF”, the “transcriptional activation domain activity” value is 46900.
As for “EGEEDKPKAARGRKRKADADAEEPPAKKTKPASKAAPGSKPASKAAASKPASK”, the “transcriptional activation domain activity” value was found to be 25400.
As to “ALLFLNTLLELLESYHKSQYLAEILSRLQVDWRSLWSWLSVFIRSYANLKMGT”, the “transcriptional activation domain activity” value amounted to 28300.
Consider “HKLALNLKTAWKGRKYEIPLFGVHIAGQYVSTYIFYEVASFKAFFNYIFSFTR”, for which the “transcriptional activation domain activity” value is 69100.
With “HEDQKLREDQEARLRAVEEFEAVQMGLSVKTGASARVIGRQGGRIVAEEEQHV” the figure was 26100.
With “ERDKRDDKDRERRHHKRSRHHDSDEERREGSSSRRHRHKSRRSKSPSSKVNEE” the figure was 22800; with “FFGSLMGGALARPQDHWPELFAHPFWTTHPYFLPSASSDCVLLLIIFISLFFL”, 77800.
“GASPEESNSGNSRAGASRARKGSKVIDENMVEDALLGLQITHGCLVHHTASVQ”: the “transcriptional activation domain activity” value came to 44800.
“DCDIAQQQRFGAMFDDLLKSRETYFLRCSLSTWEIEHDVWWPFYLRSLEWCYF”: the “transcriptional activation domain activity” value worked out at 50000.
On to “RLGEEKRSKSTEEAPREESEEAESTKKASGKSESAGEEKTKEEGEEGEGKKEG”, for which the “transcriptional activation domain activity” value is 30800.
With “AVTCMTIFATISLKLNQQDMLTPWYTSLPLHRRLLHQWFCGLLHWMGFYLVWS” the figure was 65900.
With “APPPPQPAPPVSVAPSKKTSKSKVDAPASNNEPEPVSAPKKGRKGKSKAIAQT” the figure was 12200; with “LVLRSVILSLMVFLVIFCSEYFLFPFCHSICCYGYIYILIDSWVSFSLLVFFS”, 65700; with “PHHKWLVPTPFASHAFHPVDGYAQSVPYHLFVFLFPMHRLLYLILFVAVNFWS”, 48000.
“EGKGKKGEKREREKRRGRGGKREKRRKREGRRRREKREGKEGGGEKEEKEGEE”: the “transcriptional activation domain activity” value amounted to 29000.
With “MLEGILGWSKWQKYSIKWYIWLPRLFFQSFFPFFSCPISLQKFSVLLFHFFFL” the figure was 59700; with “RDARARRTRERRRGRAERAPEEGRREERRKRGRGARGGRARGGAAGRGGRGEG”, 32200.
Take “GVPIWRLTGETWNWKEIVDRHPLTGKVVRRRSLKWGMACYRFWWVVWGCLFYI”: the “transcriptional activation domain activity” value was found to be 59300.
With “IGWWMVKSGLKDDLFAPGSHPRVSQYRLTAHLSTAFFCYSWMLLAGLSVLRTR” the figure was 69800; with “RGRRKWNWTVVLYFACRVTTLAAAVTQMTGFNFTSEISCKTWLILTRIFTNTS”, 48200.
With “SRPSTAPKPAPNPSPETTVTSISTPSEKRKRGRKPKAKPVEVPVSQTSGADSL” the figure was 20600; with “AAAAAAAEGDGEGKGKEDGEDKEKEGGNGEAEAEAGAEGKKAAAGAAQKESSN”, 35100.
Regarding “LCIGIVLIAAFIAYEYLMVSGRVLARHLPHQKSMLPWELITNKDLGLLFYVNF”, the “transcriptional activation domain activity” value is 44400.
For “VNGGGESDEDVKSKKDSKRKGKAIKGEDEEEEEEKPKANSKRGRKKVEENGAV”, the “transcriptional activation domain activity” value amounted to 44700.
As for “PAHVIFDVVIVCAGYFAREAFEEVVRMTTMCAVGPVFVVQALVRAGKVCTGIG”, the “transcriptional activation domain activity” value came to 76300.
As to “MIIVRSIFYCLGLIALLEFMLIRVASAFAISSLLTNLAYNKPFFLTYLSCATH”, the “transcriptional activation domain activity” value worked out at 67100.
With “DDETADGERQSKREKADDDDDGEEMEIDEEEESAANRNTAVVPPAVQKPSARL”, the “transcriptional activation domain activity” value came out at 19200.
With “YQWVNYDLDTICMNFWTLKFLPDELPPIKHFSVVANDCKLFMYNVMGIIRFMS”, the “transcriptional activation domain activity” value came out at 82700.
For the sequence “MVVLTICQLHHWNAGWDFHLLFWVCLFYSVKKLYDLILWLNFILTSKDLVKSN”, the “transcriptional activation domain activity” value worked out at 40600.
For “MIGHDYLLVVVPIPILSLLHVSLLPYFFYFFVLVLVFLYLFLLRFLSFLLLLL”, the “transcriptional activation domain activity” value amounted to 65700.
With “LEVTQRGITPANTDYNSNPIDKCLVSDSFNESTTNLLRSLLHCLRILALTYHA”, the “transcriptional activation domain activity” value came out at 36600.
“EREKKKGREKEEKGGKERRGKKGRGKEEGKKRRKRGRKERKEGRKGEEGKRGR”: the “transcriptional activation domain activity” value was 33600.
For the sequence “LHPAPSSPSSTPRRRAAASTTATRTPAPAPTRTRRCSSSTKPPTASSSTPPRR”, the “transcriptional activation domain activity” value came to 57400.
Turning to “PGAAGGEKEKKKRQRTKNKKVDAAAPAEDAPAAAAEKLAKLEVAPADDDAAAK”, the “transcriptional activation domain activity” value turned out to be 25900.
On to “PKDEKKQEDDQKAKDGSKSEGDLGEKKEEKVEEKKDDDNKSGEKKDEASKSGD”, for which the “transcriptional activation domain activity” value was found to be 28000.
On to “WLSHSQKKHCELCKTPFRFTKLYAPNMPKALPTHVFLSHVAKYILRNLLVWLR”, for which the “transcriptional activation domain activity” value was found to be 81200.
With “PGEVSEAEANGEVKAEGEVVATDDAAKPKKKKSKKSRKARAAKAATEDEEGAA”, the “transcriptional activation domain activity” value was < 6570.
Turning to “VHEVRAKAVKLVTASDSDDESGAGAGKAKKSEWKTQGVGPLRLLKNKSTGAVR”, the “transcriptional activation domain activity” value came out at 32400.
Take “IFVSLLDYLATWISDDQIKCWPLNFVSRMFFYMLYFVFYRTILLFLTIEEIAV”: the “transcriptional activation domain activity” value is 55200.
Regarding “CLMVVFLIVQLLVITVARRCRKTDARFVLERVFLKTHLGLYVFCLLITNFASG”, the “transcriptional activation domain activity” value was 50200.
With “QKMQKSGGFVNINVFGFVFIIAVSCVVVTLDITLLKFLIFISEFQRLTHLSAR” the figure was 45400.
As for “YGVHLLARFAWWFPSMSAIIAKLEGTINKLHILSHKELCQIIHNLNWLLYVGL”, the “transcriptional activation domain activity” value was determined as 71400.
With “ANEEAEPEHPEPAAEANDSTGREGRGRGKRGRDRGRGRGRGRGGRSGRGGASG” the figure was 27600; with “TINLSLPPRDRYVLVATDYAHVLREMPCLYDEAVQHMKLPAGFFHLLGRILLR”, 58100.
In the case of “RRRRRHEEGGRGGDRSRGRDGERSSTRHEERRHRSRDRRDDRDRDRGSERRGH”, the “transcriptional activation domain activity” value stood at 44500.
Turning to “MYCACGQDGKSPFVMRCVLCFGFVFLFLFLLFFSSLLISLLFIFSHCSMLLPI”, the “transcriptional activation domain activity” value worked out at 23000.
With “EVMKIHPVQKQTRAGQRTRFKAYVVVGDSNGHVGLGVKCSKEVATAIRSAIIL” the figure was 38700; with “MLAYTHFLIMLDRDILNICCVIYFYCLVFICLLLTFLLLIAPLNTCVGLCWKG”, 54400.
Turning to “KLIKHNKNVRTWWKKDDQFWVPRGHIHVYFRTPIIGITVRAQLTASLFINLVH”, the “transcriptional activation domain activity” value turned out to be 47300.
With “CLLGTGSFWGLVYISLAYMDGFAFKYLLQFHHIIKLLWISTVGGLIMIAFWSF” the figure was 52900; with “VARKLLNTIHPALGPLHACSVLRKIRVLICMAGEHATSTYPLEMLLHSLRVFV”, 44700; with “PLIDLFGKDHLCLVKAAYHKIFGIVFESGTDLTDHVRRMLCTRSDFARTILPL”, 82800.
With “SLIGIGITILQQLSEISFLPMTTFNISRCLWRLSLLTILACVNFGPSIYIFWF”, the “transcriptional activation domain activity” value amounted to 51500.
On to “VLICAHGQQQMGSGVFLGQDLLSRARMESIFCRSTVPVIVITTAYCSGLWAVP”, for which the “transcriptional activation domain activity” value was found to be 55900.
With “MHVAYFMVLFFFIVLIDAHLVVPYIFDVELLTYMLNDAFKFDLFGCFCKVIVI”, the “transcriptional activation domain activity” value came to 68900.
Regarding “MEEPSGDASRRRNGPRLYHKKSRLGCIRCKQRRVKCDEKRPACTGCSRHAVEC”, the “transcriptional activation domain activity” value came to 60500.
With “GTSGTSVASRPSITPRAFGSSRSSRPSARSGSPSSRTAPSTPAPASSTRRTRP” the figure was 31100.
As for “MHKCCLLDFLMLSTNYADVFYFHKLCIILTSFFSRLNPLLSIGLNLLLFCLLI”, the “transcriptional activation domain activity” value amounted to 57000.
For “LLLLLLYFFLFLFLFLFLCSQVLCLGQVDLVDLEKPFVFQSFFEIFPTLLFLP”, the “transcriptional activation domain activity” value stood at 35100.
With “MGIIIVVCVFFFLTGFLFTLVFLLSLWSLFVFFYFINFSFPLSFALLLLIFFL” the figure was 40500; with “AAAGRRGPGKRKGSRTSPGTAGGGGGRGGRGGGGRGGGARGGGAGGEAAGGAT”, 29900; with “MAWAIQGRLFSFNCSCSHFIFWPLFFFFSLPWRAWSSIGNNSRFSRLFFFFFL”, 60900.
As to “FRMVLLVYQVAWAVHVYRTRNIALAYLNNYARMMYAIRSYNYQCLFHQIDLEG”, the “transcriptional activation domain activity” value came out at 57100.
On to “SMLSYHLWMVMHAETSVESQDFHIYRKVAKRRGETFTNSYDLGKIRNLELFFN”, for which the “transcriptional activation domain activity” value came to 61200.
As to “MFMDTLLFVFMHYGWTFFLNCCLWCFMISLCFWYVKFCLPIGCYILILCMWQG”, the “transcriptional activation domain activity” value is 66200.
For the sequence “SIWSFSTLLSILARDHVFYFFIKQNVDTFYIWLLETTAIYYIFMLGPIMFLSI”, the “transcriptional activation domain activity” value was 60600.
With “SSEEEDEEDEEEEEEEEEEEAPPKKRAKTKGTVLYCYIFSPFFVPATVNPAID”, the “transcriptional activation domain activity” value was 56700.
Turning to “VQGTTHGRILIQAGKEIWTQELLLPYVYFILTLNPTIHTWERIKKITGYVFRA”, the “transcriptional activation domain activity” value was 64200.
With “AATAEPEKKKGSKKDKAAAAPAPAAAPAKDAKSAKKAKKSAAPPPPPPAASSS”, the “transcriptional activation domain activity” value came out at 15600.
With “MRIRYEMSWGFLLSFLLSNGRRKIDHGTSSLRMTLGFLIAHRVYMMIILNFYT” the figure was 47200; with “EQDAFFPWLWIDPQFPEDPVLGSWDTFLGDFNCGMPLDDLDFALDMLQYSVGA”, 161000; with “GGAGKGKGAAAAAAKAAGAARDVEDIVAREPEPHHKGAGGAGKGKGAAAAAAK”, 41900.
